Data as given in patent US20260265340A1 (CUROGEN TECHNOLOGY, published 2026).

Molecular target: T1, human TNFα (human, UniProt P01375 77-233)
T1 construct: also called hTNFα
Assay: ELISA, cytokine coated on the plate; the text value differs from the table cell 43.8
Procedure: The wells were then blocked with ELISA TBS buffer containing 5% BSA at 100 μl/well and incubated at room temperature for 1 hour, followed by three washes with ELISA TBS buffer (200 μl/well). […] After three washes with ELISA TBS buffer (200 μl/well), HRP-conjugated secondary antibody (Abcam, Cat. Ab98624) was applied and incubated at room temperature for 1 hour.

T1 sequence (P01375 77-233 limits assumed): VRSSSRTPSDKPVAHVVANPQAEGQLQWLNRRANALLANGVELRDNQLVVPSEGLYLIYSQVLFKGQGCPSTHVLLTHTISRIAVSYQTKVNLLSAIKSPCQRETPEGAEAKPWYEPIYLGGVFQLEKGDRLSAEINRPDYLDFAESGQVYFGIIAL

B1: IL-17RA/RC-Fc-TNFR2 fusion protein T1-T4-14 (Fc fusion)
chain: LRLLDHRAPVCSQPGLNCTVKNSDCLDDSWIHPRNLTPSSPKDLQIQLHFAHTQQGDLVPVAHIEWTLQTDASILYLEGAELSVLQLDTNERLCVRFEFLSKLRHHHRRWRFTFSHFVVDPGQEYEVTVHHLPKPIPDGDPNHQSKNFLVPDCEHPRMKVTTPCMSSALPWLNVSADGDNVHLVLNVSEEQHFGLSLYWNQVQGPPKPRWHKNLTGPQIITLNHTDLVPCLCIQVWPLEPDSVRTNICPFREDPRAHQNLWQAARLRLLTLQSWLLDAPCSLPAEAALCWRAPGGDPCQPLVPPLSWENVTVDKVLEFPLLKGHPNLCVQVNSSEKLQLQECLWADSLGPLKDDVLLLETRGPQDNRSLCALEPSGCTSLPSKASTRAARLGEYLLQDLQSGQCLQLWDDDLGALWACPMDKYIHKTGIEGRMDRNTGRGGEEKKKEKEKEEQEERETKTPECPSHTQPLGVFLFPPKPKDTLMISRTPEVTCVVVDVSQEDPEVQFNWYVDGVEVHNAKTKPREEQFNSTYRVVSVLTVLHQDWLNGKEYKCKVSNKGLPSSIEKTISKAKGQPREPQVYTLPPSQEEMTKNQVSLTCLVKGFYPSDIAVEWESNGQPENNYKTTPPVLDSDGSFFLYSRLTVDKSRWQEGNVFSCSVMHEALHNHYTQKSLSLSLGKGGGGSGGGGSGGGGSLELPAQVAFTPYAPEPGSTCRLREYYDQTAQMCCAKCPPGQHAKVFCTKTSDTVCDSCEDSTYTQLWNWVPECLSCSSRCSSDQVETQACTREQNRICTCRPGWYCALSKQEGCRLCAPLSKCRPGFGVARPGTETSDVVCKPCAPGTFSNTTSSTDICRPHQICSVVAIPGNASMDAVCTSTSPTRSMAPGAVHLPQPVSTRSQHTQPTPGPSTAPSTSILLPMGPSPPAEGSTGD
notes: Structure T1c-Fc-T4g; also called T1c-Fc-T4g; IL-17RA/RC-Fc-TNFR2 (T1-T4-14)
With B1 as the binder, how does the EC50 read?
The EC50 was 0.0431 µg/mL.
